This is an account of results in US20070048268A1.

The assay deals with human IL-21 receptor (human) (UniProt Q9HBE5). The assay can be described thus: cell-based or functional assay.

“human IL-21-saporin immunotoxin conjugate (from UniProt P20656 25-277)”: the 3H-thymidine incorporation of MOLT-13 cells, relative to IL-21 treated cells is 70%; the growth inhibition of IM-9 cells, Alamar Blue proliferation assay, maximal conjugate concentration (250 ng/ml) turned out to be 79%; the growth inhibition of RAMOS cells, Alamar Blue proliferation assay, maximal conjugate concentration (250 ng/ml) was determined as 65%; the growth of DEL cells, density relative to untreated cells worked out at 25%. The substance also registered a growth of HuT-78 cells, density relative to untreated cells of 33%; a growth of HuT-102 cells, density relative to untreated cells of 20%; a growth of YT cells, density relative to untreated cells of 33%.
